Experimental data: patent US20250282874A1 (SUZHOU TRANSCENTA THERAPEUTICS, published 2025)

How the values were obtained:
human PD-L1-Fc [1] = target: T1, human PD-L1-Fc (human, UniProt Q9NZQ7 19-239); assay: BLI; against L-CDR2-WT
T1 construct: also called hPD-L1-Fc; human PD-L1-Fc (Sino Biological, 70110-D02H); not shown: Fc part

human PD-L1-Fc [2] = target: T1, human PD-L1-Fc; assay: BLI; PD-L1-Fc loaded on the sensor, scFv in solution
[3] = target: T2, human PD-L1 expressed on cells (human, UniProt Q9NZQ7 19-290); assay: cell-based or functional assay
[4] = target: T3, Human IL-1β protein (Sino Biological, Cat #10139) (human, UniProt P01584 117-269); assay: cell-based or functional assay
[5] = target: T4, hPD-L1 (Acro Biosystems, PD1-H5229) (human, UniProt Q9NZQ7 19-238); assay: ELISA, hPD-L1 coated, anti-human Fc-HRP, OD450
T4 construct: also called human PD-L1; hPD-L1 protein

[6] = target: T3, Human IL-1β protein (Sino Biological, …); assay: ELISA, hIL-1β protein coated, anti-human Fc-HRP, OD450
[7] = target: T2, human PD-L1 expressed on cells; assay: flow cytometry on 293T-PD-L1-CD3L cells, Mean FITC-A as printed
[8] = target: T3, Human IL-1β protein (Sino Biological, …); assay: cell-based or functional assay; remark: listed apart in the source
human CD47 = human CD47 (human, UniProt Q08722 19-139, limits assumed); assay: ELISA on human CD47, OD450
[9] = target: T4, hPD-L1 (Acro Biosystems, PD1-H5229); assay: ELISA on human PD-L1, OD450
human PD-L1-His [10] = target: T5, human PD-L1-His (human, UniProt Q9NZQ7 19-238, limits assumed); assay: ELISA, human PD-L1 coated, OD450
T5 construct: not shown: His tag

human PD-L1-His [11] = target: T5, human PD-L1-His; assay: ELISA, human PD-L1-His coated, anti-human IgG-HRP, OD450

human CD47, sequence (Q08722 19-139 limits assumed): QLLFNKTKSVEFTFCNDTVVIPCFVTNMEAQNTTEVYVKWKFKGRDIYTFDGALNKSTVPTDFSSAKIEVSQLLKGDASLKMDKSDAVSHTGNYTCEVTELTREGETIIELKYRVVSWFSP

B1: 4B6 scFv variant L-CDR2-3 (scFv)
scFv: DIQMTQSPSSLSASVGDRVTITCKASQNVGAAVAWYQQKPGKAPKLLIYSVSDRYTGVPSRFSGSGSGTDFTLTISSLQPEDIATYYCQQYSNYPTFGQGTKLEIKGGGGSGGGGSGGGGSQVQLVQSGAEVKKPGASVKVSCKASGYVFTDYYMNWVRQAPGQSLEWMGDINPNNAGTSYNHKFKGRVTVTVDKSISTAYMELSRLRSDDTAVYYCVKWGDGPFAYWGQGTLVTVSS
notes: also called 4B6-L-CDR2-3
Fold increase (human PD-L1-Fc [1]): 6.32 fold
Kd (human PD-L1-Fc [2]): 4.37 nM
kon (human PD-L1-Fc [2]): 124000 M⁻¹ s⁻¹

B2: IgG-scFv-XOMA052-AM4B6 (bispecific antibody)
heavy: QVQLQESGPGLVKPSQTLSLTCSFSGFSLSTSGMGVGWIRQPSGKGLEWLAHIWWDGDESYNPSLKSRLTISKDTSKNQVSLKITSVTAADTAVYFCARNRYDPPWFVDWGQGTLVTVSSASTKGPSVFPLAPSSKSTSGGTAALGCLVKDYFPEPVTVSWNSGALTSGVHTFPAVLQSSGLYSLSSVVTVPSSSLGTQTYICNVNHKPSNTKVDKKVEPKSCDKTHTCPPCPAPEFEGGPSVFLFPPKPKDTLMISRTPEVTCVVVDVSHEDPEVKFNWYVDGVEVHNAKTKPREEQYNSTYRVVSVLTVLHQDWLNGKEYKCKVSNKALPASIEKTISKAKGQPREPQVYTLPPSRDELTKNQVSLTCLVKGFYPSDIAVEWESNGQPENNYKTTPPVLDSDGSFFLYSKLTVDKSRWQQGNVFSCSVMHEALHNHYTQKSLSLSPGAGGGGSGGGGSGGGGSGGGGSQVQLVQSGAEVKKPGASVKVSCKASGYVFTDYYMNWVRQAPGQSLEWMGDINPNNAETLYNHKFKGRVTVTVDKSISTAYMELSRLRSDDTAVYYCVKWGDGPFAYWGQGTLVTVSSGGGGSGGGGSGGGGSGGGGSDIQMTQSPSSLSASVGDRVTITCKASQNVGAAVAWYQQKPGKAPKLLIYSVSDRYTGVPSRFSGSGSGTDFTLTISSLQPEDIATYYCQQYSNYPTFGQGTKLTVL
light: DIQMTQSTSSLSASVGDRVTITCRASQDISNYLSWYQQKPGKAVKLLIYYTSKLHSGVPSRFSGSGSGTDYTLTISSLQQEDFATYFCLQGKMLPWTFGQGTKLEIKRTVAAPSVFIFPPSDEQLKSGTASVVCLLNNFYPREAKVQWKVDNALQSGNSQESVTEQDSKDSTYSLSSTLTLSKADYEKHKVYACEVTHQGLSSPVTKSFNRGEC
notes: Anti-IL-1β IgG (Gevokizumab) with the AM4B6 scFv on the C-terminus of the heavy chain
IC50 (so in the source), luminescence (axis printed OD450), 293T-PD-L1-CD3L cells with Jurkat-NFAT-Luc-PD1 cells [3]: 1.49 nM
IC50, IL-6 release (pg/mL) of HDF cells stimulated with human IL-1β [4]: 0.0141 nM
EC50 [5]: 0.0349 nM
EC50 [6]: 0.0155 nM
EC50 [7]: 1.4 nM

B3: IgG-scFv-ACZ885-AM4B6 (bispecific antibody)
heavy: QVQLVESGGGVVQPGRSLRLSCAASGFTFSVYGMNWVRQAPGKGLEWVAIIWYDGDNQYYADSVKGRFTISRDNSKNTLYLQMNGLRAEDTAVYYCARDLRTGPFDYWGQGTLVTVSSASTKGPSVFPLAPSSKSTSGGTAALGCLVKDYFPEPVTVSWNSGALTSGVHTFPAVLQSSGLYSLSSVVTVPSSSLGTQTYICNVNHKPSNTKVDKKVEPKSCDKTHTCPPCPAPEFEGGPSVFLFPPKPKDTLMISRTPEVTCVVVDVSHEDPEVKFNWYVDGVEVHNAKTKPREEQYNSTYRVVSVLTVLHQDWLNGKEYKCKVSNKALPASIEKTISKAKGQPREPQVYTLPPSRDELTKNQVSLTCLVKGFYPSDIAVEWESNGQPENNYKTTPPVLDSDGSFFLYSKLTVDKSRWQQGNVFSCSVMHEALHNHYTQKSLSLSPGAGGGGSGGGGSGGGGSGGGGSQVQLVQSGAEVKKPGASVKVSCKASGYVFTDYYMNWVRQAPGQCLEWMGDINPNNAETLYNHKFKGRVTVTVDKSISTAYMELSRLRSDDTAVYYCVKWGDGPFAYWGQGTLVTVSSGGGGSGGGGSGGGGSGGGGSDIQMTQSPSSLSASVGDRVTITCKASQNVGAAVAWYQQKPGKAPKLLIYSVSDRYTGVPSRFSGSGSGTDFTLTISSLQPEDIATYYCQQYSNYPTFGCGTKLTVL
light: EIVLTQSPDFQSVTPKEKVTITCRASQSIGSSLHWYQQKPDQSPKLLIKYASQSFSGVPSRFSGSGSGTDFTLTINSLEAEDAAAYYCHQSSSLPFTFGPGTKVDIKRTVAAPSVFIFPPSDEQLKSGTASVVCLLNNFYPREAKVQWKVDNALQSGNSQESVTEQDSKDSTYSLSSTLTLSKADYEKHKVYACEVTHQGLSSPVTKSFNRGEC
notes: Anti-IL-1β IgG (Canakinumab) with the AM4B6 scFv on the C-terminus of the heavy chain
IC50 (so in the source), luminescence (axis printed OD450), 293T-PD-L1-CD3L cells with Jurkat-NFAT-Luc-PD1 cells [3]: ~1.29 nM
IC50, SEAP at OD620, HEK293-CD40L reporter cells stimulated with human IL-1β [8]: 0.346 nM
EC50 [5]: 0.0363 nM
EC50 [6]: 0.0182 nM
EC50 [7]: 1.51 nM

B4: AM4B6-hIgG1-SIRPα (other)
heavy: QVQLVQSGAEVKKPGASVKVSCKASGYVFTDYYMNWVRQAPGQSLEWMGDINPNNAETLYNHKFKGRVTVTVDKSISTAYMELSRLRSDDTAVYYCVKWGDGPFAYWGQGTLVTVSSASTKGPSVFPLAPSSKSTSGGTAALGCLVKDYFPEPVTVSWNSGALTSGVHTFPAVLQSSGLYSLSSVVTVPSSSLGTQTYICNVNHKPSNTKVDKKVEPKSCDKTHTCPPCPAPEFEGGPSVFLFPPKPKDTLMISRTPEVTCVVVDVSHEDPEVKFNWYVDGVEVHNAKTKPREEQYNSTYRVVSVLTVLHQDWLNGKEYKCKVSNKALPASIEKTISKAKGQPREPQVYTLPPSRDELTKNQVSLTCLVKGFYPSDIAVEWESNGQPENNYKTTPPVLDSDGSFFLYSKLTVDKSRWQQGNVFSCSVMHEALHNHYTQKSLSLSPGAGGGGSGGGGSGGGGSGGGGSGEEELQIIQPDKSVLVAAGETATLRCTITSLFPVGPIQWFRGAGPGRVLIYNQRQGPFPRVTTVSDTTKRNNMDFSIRIGNITPADAGTYYCIKFRKGSPDDVEFKSGAGTELSVRAKPS
light: DIQMTQSPSSLSASVGDRVTITCKASQNVGAAVAWYQQKPGKAPKLLIYSVSDRYTGVPSRFSGSGSGTDFTLTISSLQPEDIATYYCQQYSNYPTFGQGTKLEIKRTVAAPSVFIFPPSDEQLKSGTASVVCLLNNFYPREAKVQWKVDNALQSGNSQESVTEQDSKDSTYSLSSTLTLSKADYEKHKVYACEVTHQGLSSPVTKSFNRGEC
notes: Symmetrical bifunctional antibody against PD-L1 and CD47 (SIRPα_CV1 on the heavy chain)
EC50 (human CD47): 0.24 nM
EC50 [9]: 0.154 nM

B5: AM4B6-hIgG1-SIRPα (KIH) (other)
heavy 1: QVQLVQSGAEVKKPGASVKVSCKASGYVFTDYYMNWVRQAPGQSLEWMGDINPNNAETLYNHKFKGRVTVTVDKSISTAYMELSRLRSDDTAVYYCVKWGDGPFAYWGQGTLVTVSSASTKGPSVFPLAPSSKSTSGGTAALGCLVKDYFPEPVTVSWNSGALTSGVHTFPAVLQSSGLYSLSSVVTVPSSSLGTQTYICNVNHKPSNTKVDKKVEPKSCDKTHTCPPCPAPEFEGGPSVFLFPPKPKDTLMISRTPEVTCVVVDVSHEDPEVKFNWYVDGVEVHNAKTKPREEQYNSTYRVVSVLTVLHQDWLNGKEYKCKVSNKALPASIEKTISKAKGQPREPQVYTLPPCRDELTKNQVSLWCLVKGFYPSDIAVEWESNGQPENNYKTTPPVLDSDGSFFLYSKLTVDKSRWQQGNVFSCSVMHEALHNHYTQKSLSLSPGAGGGGSGGGGSGGGGSGGGGSGEEELQIIQPDKSVLVAAGETATLRCTITSLFPVGPIQWFRGAGPGRVLIYNQRQGPFPRVTTVSDTTKRNNMDFSIRIGNITPADAGTYYCIKFRKGSPDDVEFKSGAGTELSVRAKPS
heavy 2: QVQLVQSGAEVKKPGASVKVSCKASGYVFTDYYMNWVRQAPGQSLEWMGDINPNNAETLYNHKFKGRVTVTVDKSISTAYMELSRLRSDDTAVYYCVKWGDGPFAYWGQGTLVTVSSASTKGPSVFPLAPSSKSTSGGTAALGCLVKDYFPEPVTVSWNSGALTSGVHTFPAVLQSSGLYSLSSVVTVPSSSLGTQTYICNVNHKPSNTKVDKKVEPKSCDKTHTCPPCPAPEFEGGPSVFLFPPKPKDTLMISRTPEVTCVVVDVSHEDPEVKFNWYVDGVEVHNAKTKPREEQYNSTYRVVSVLTVLHQDWLNGKEYKCKVSNKALPASIEKTISKAKGQPREPQVCTLPPSRDELTKNQVSLSCAVKGFYPSDIAVEWESNGQPENNYKTTPPVLDSDGSFFLVSKLTVDKSRWQQGNVFSCSVMHEALHNHYTQKSLSLSPGK
light: DIQMTQSPSSLSASVGDRVTITCKASQNVGAAVAWYQQKPGKAPKLLIYSVSDRYTGVPSRFSGSGSGTDFTLTISSLQPEDIATYYCQQYSNYPTFGQGTKLEIKRTVAAPSVFIFPPSDEQLKSGTASVVCLLNNFYPREAKVQWKVDNALQSGNSQESVTEQDSKDSTYSLSSTLTLSKADYEKHKVYACEVTHQGLSSPVTKSFNRGEC
notes: Asymmetric (knob into hole) bifunctional antibody
EC50 (human CD47): 0.167 nM
EC50 [9]: 0.0853 nM

B6: ACZ885 (antibody, V domains shown)
VH: QVQLVESGGGVVQPGRSLRLSCAASGFTFSVYGMNWVRQAPGKGLEWVAIIWYDGDNQYYADSVKGRFTISRDNSKNTLYLQMNGLRAEDTAVYYCARDLRTGPFDYWGQGTLVTVSS
VL: EIVLTQSPDFQSVTPKEKVTITCRASQSIGSSLHWYQQKPDQSPKLLIKYASQSFSGVPSRFSGSGSGTDFTLTINSLEAEDAAAYYCHQSSSLPFTFGPGTKVDIK
notes: Monoclonal anti-IL-1β antibody; also called Canakinumab
IC50, SEAP at OD620, HEK293-CD40L reporter cells stimulated with human IL-1β [8]: 0.294 nM
EC50 [6]: 0.0113 nM

B7: Hu4B6_HdLa (antibody, human IgG1, V domains shown)
VH: QVQLVQSGAEVKKPGASVKVSCKASGYVFTDYYMNWVRQAPGQSLEWMGDINPNNGGTSYNHKFKGRVTVTVDKSISTAYMELSRLRSDDTAVYYCVKWGDGPFAYWGQGTLVTVSS
VL: DIQMTQSPSSLSASVGDRVTITCKASQNVGAAVAWYQQKPGKAPKLLIYSASNRYTGVPSRFSGSGSGTDFTLTISSLQPEDIATYYCQQYSNYPTFGQGTKLEIK
EC50 (human PD-L1-His [10]): 0.347 nM
EC50 (human PD-L1-His [11]): 1.04 nM

B8: Hu4B6_HgLa (antibody, V domains shown)
VH: QVQLVQSGAEVKKPGASVKVSCKASGYVFTDYYMNWVRQAPGQSLEWMGDINPNNAGTSYNHKFKGRVTVTVDKSISTAYMELSRLRSDDTAVYYCVKWGDGPFAYWGQGTLVTVSS
VL: DIQMTQSPSSLSASVGDRVTITCKASQNVGAAVAWYQQKPGKAPKLLIYSASNRYTGVPSRFSGSGSGTDFTLTISSLQPEDIATYYCQQYSNYPTFGQGTKLEIK
notes: Hu4B6_Hd with G55A, paired with Hu4B6_La
EC50 (human PD-L1-His [10]): 0.407 nM
